According to paper PMC9547493 (2020):
Bridge positions count the residues as written; N and C are the ends. Ends that are not written are not given here. γCp(RSS) = N-terminal (R,S,S)-cyclopropane γ-amino acid; γCp(SRR) = N-terminal (S,R,R)-cyclopropane γ-amino acid

Columns and labels:
[1] = molecular target: T1, CeiPGM-γCp(SRR) (synthetic construct, thioether N-14); assay: SPR
T1 chain: {γCp(SRR)}-FSISGIEWNGPEIC

[2] = molecular target: T2, CeiPGM-γCp(RSS) (synthetic construct, thioether N-14); assay: SPR
T2 chain: {γCp(RSS)}-FSISGIEWNGPEIC

Kd [1]: 0.8 nM
Kd [2]: 0.3 nM
B1: CeiPGM (cofactor-independent phosphoglycerate mutase) (protein)
chain: MFVALGAQIYRQYFGRRGMAMANNSSVANKVCLIVIDGWGVSEDPYGNAILNAQTPVMDKLCSGNWAQIEAHGLHVGLPEGLMGNSEVGHLNIGAGRVIYQDIVRINLAVKNNKFVTNESLVDACDRAKNGNGRLHLAGLVSDGGVHSHIDHMFALVKAIKELGVPELYLHFYGDGRDTSPNSGVGFLEQTLEFLEKTTGYGKLATVVGRYYAMDRDNRWERINVAYEAMIGGVGETSDEAGVVEVVRKRYAADETDEFLKPIILQGEKGRVQNDDTIIFFDYRADRMREISAAMGMDRYKDCNSKLAHPSNLQVYGMTQYKAEFPFKSLFPPASNKNVLAEWLAEQKVSQFHCAETEKYAHVTFFFNGGLEKQFEGEERCLVPSPKVATYDLQPEMSAAGVADKMIEQLEAGTHPFIMCNFAPPDMVGHTGVYEAAVKACEATDIAIGRIYEATQKHGYSLMVTADHGNAEKMKAPDGGKHTAHTCYRVPLTLSHPGFKFVDPADRHPALCDVAPTVLAIMGLPQPAEMTGVSIVQKI
